Molecular target: T1, His-CTNNBL1(Δ1–76) (UniProt Q8WYA6 77-563)
T1 sequence (looked up): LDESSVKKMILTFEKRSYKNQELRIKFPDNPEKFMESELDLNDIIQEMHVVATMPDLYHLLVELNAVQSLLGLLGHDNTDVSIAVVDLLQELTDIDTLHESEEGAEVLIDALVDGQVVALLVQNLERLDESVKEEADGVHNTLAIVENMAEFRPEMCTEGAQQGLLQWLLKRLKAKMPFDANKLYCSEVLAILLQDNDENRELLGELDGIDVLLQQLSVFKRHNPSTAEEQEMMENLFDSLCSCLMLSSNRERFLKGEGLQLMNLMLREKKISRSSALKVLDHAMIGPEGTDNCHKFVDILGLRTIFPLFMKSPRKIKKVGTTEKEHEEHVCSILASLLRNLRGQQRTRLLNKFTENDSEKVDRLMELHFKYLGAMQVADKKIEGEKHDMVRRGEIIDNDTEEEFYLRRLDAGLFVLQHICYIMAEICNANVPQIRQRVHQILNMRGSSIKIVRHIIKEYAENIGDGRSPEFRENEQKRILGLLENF
Experiment: ITC

- dH1 (site 1): -1.48 ± 0.11 kcal/mol
- dH2 (site 2): -3.28 ± 0.15 kcal/mol
Binder: KKRKRKR [CDC5L NLS3 peptide]
